“And” between values parts separate entries of the source, which are not always exact repeats. Equal entries are not always repeated.
Conditions: Homo sapiens, pH 4.2, 20 °C, Urea, CD, sodium acetate 2 mM, whole UniProt chain shown

B1: Alpha-lactalbumin wild type, P00709 (protein)
chain: MRFFVPLFLVGILFPAILAKQFTKCELSQLLKDIDGYGGIALPELICTMFHTSGYDTQAIVENNESTEYGLFQISNKLWCKSSQVPQSRNICDISCDKFLDDDITDDIMCAKKILDIKGIDYWLAHKALCTEKLEQWLCEKL
- denaturant m value (Na2SO4 20 mM): 0.88 kcal/mol/M and 0.67 kcal/mol/M
- denaturant midpoint (higher = more stable) (Na2SO4 20 mM): 4.34 M and 5.85 M
- denaturant m value (NaCl 30 mM): 0.58 kcal/mol/M
- denaturant midpoint (higher = more stable) (NaCl 30 mM): 5.43 M
- denaturant midpoint (higher = more stable) (NaClO4 50 mM): 4.62 M and 6.06 M
